Results on 1 molecule are retold here after PMC9638925 (Nucleic Acids Research, 2022).

The target of the test is T1, USP15 (275–981) (human, UniProt Q9Y4E8 275-981).
T1 sequence: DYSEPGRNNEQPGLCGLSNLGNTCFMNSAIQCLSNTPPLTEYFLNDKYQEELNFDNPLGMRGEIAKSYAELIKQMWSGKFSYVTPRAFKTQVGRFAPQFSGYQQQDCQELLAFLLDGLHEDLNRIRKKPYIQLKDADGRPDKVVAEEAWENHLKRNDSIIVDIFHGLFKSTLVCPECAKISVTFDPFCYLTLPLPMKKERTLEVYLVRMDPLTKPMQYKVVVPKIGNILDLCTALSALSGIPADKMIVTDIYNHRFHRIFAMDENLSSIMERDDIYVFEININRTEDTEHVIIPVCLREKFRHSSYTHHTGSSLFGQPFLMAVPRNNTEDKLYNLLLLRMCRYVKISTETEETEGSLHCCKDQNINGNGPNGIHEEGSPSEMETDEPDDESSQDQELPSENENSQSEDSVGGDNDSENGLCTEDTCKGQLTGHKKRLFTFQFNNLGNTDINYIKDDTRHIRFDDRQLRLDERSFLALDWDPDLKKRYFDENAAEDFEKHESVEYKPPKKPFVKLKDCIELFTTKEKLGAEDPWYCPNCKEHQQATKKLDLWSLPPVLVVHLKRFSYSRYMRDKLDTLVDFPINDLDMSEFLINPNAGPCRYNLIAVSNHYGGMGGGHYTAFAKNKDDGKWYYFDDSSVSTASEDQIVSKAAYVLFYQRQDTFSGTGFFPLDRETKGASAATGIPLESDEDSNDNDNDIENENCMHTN
In words: pull-down.

B1: GST–cGAS (161–522) (domain or fragment)
chain: GASKLRAVLEKLKLSRDDISTAAGMVKGVVDHLLLRLKCDSAFRGVGLLNTGSYYEHVKISAPNEFDVMFKLEVPRIQLEEYSNTRAYYFVKFKRNPKENPLSQFLEGEILSASKMLSKFRKIIKEEINDIKDTDVIMKRKRGGSPAVTLLISEKISVDITLALESKSSWPASTQEGLRIQNWLSAKVRKQLRLKPFYLVPKHAKEGNGFQEETWRLSFSHIEKEILNNHGKSKTCCENKEEKCCRKDCLKLMKYLLEQLKERFKDKKHLDKFSSYHVKTAFFHVCTQNPQDSQWDRKDLGLCFDNCVTYFLQCLRTEKLENYFIPEFNLFSSNLIDKRSKEFLTKQIEYERNNEFPVFDEF
As for B1, the binding result was “binds”.
